Results from patent publication US20240368239A1, “Novel bispecific protein and use thereof” (SL METAGEN, priority 2020, published 2024).
Entries after “also recorded” stand apart in the source; their conditions may differ.

Assays:
[1] = In vivo pharmacokinetics profile after subcutaneous administration (GLP-1-Fc ELISA and GLP-2-Fc ELISA); parameters: species or system male SD (Sprague Dawley) rats; settings: for AUClast / Cmax / Half-life / Tmax: 1 mg/kg SC
Procedure: First, each protein was administered to 3 male SD (Sprague Dawley) rats per group at a dose of 1 mg/kg by subcutaneous (SC) route. Before injection and after 0.5, 1, 5, 10, 24, 48, 72, 120, and 168 hours after the injection, blood was collected and stored at room temperature for 30 minutes to aggregate. After centrifuging the aggregated blood at 3,000 rpm for 10 minutes, serum of each sample was collected and stored in a cryogenic freezer. Analyses were performed by an assay designed to specifically detect the GLP-1 site and Fc in the administered protein (GLP-1-Fc ELISA) and an assay designed to specifically detect the GLP-2 site and Fc in the administered protein (GLP-2-Fc ELISA). Specifically, a method of loading a biological sample on a plate coated with an antibody that binds to mouse-derived human immunoglobulin G4 (IgG4) to detect the target protein using a biotinylated anti-GLP-1 antibody (GLP-1-Fc ELISA), and a method of loading a biological sample on a plate coated with a monoclonal antibody that specifically reacts with GLP-2, to detect the target protein using a secondary antibody having HRP conjugated to mouse-derived human immunoglobulin G4 (IgG4) (GLP-2-Fc ELISA) were used. The obtained and prepared serum samples were loaded with appropriate dilutions to be analyzed at a position on a straight line of the standard curve.

B6 normal mice [2] = assay: Small intestine changes and nutrient absorption changes (GLP-2-2G, GLP-2-Fc homodimer, MG12-5); assay type: in vivo
Procedure: In order to observe changes in the small intestine and nutrient absorption capacity following substance administration, an experiment was conducted in B6 normal mice. PBS and GLP-2-2G were administered twice a day, and GLP-2-Fc homodimer and MG12-5 were administered once every three days for 2 weeks. For the GLP-2-Fc homodimer and MG12-5 groups, PBS was administered twice a day, as was in the other administration groups, during the period when no drug was administered. Body weight and dietary intake were monitored at 3-day intervals, and feces were collected before administration, on days 5-6 after administration, and on days 11-12 after administration, and calorimetry was performed using a bomb calorimeter, and also, feed ingested during this period was also subjected to calorimetry through the same analysis. The energy absorption rate was defined as a value obtained by subtracting the calorific value of feces from the caloric value of ingested feed. On day 14 following drug administration, the experimental animals were sacrificed and the small intestine (pylorus ileum) was weighed.

Balb/c-nude mice = assay: PET-MRI tissue distribution of Zr89-labelled proteins; assay type: in vivo; settings: Zr89 label, SC
From the text: Next, the present inventors performed an experiment in Balb/c-nude mice in order to observe the distribution in each tissue organ following the administration of a substance. Zr^89 was used as a radiotracer for tracking the distribution after administration of each substance. Each substance to be administered was labeled with Zr^89 as a reaction condition and a chelator selected through a preliminary test. The labeled Zr^89-protein was purified using a PD-10 column, and Zr^89 labeling efficiency and purity were confirmed using Radio TLC and SEC-HPLC. The labeling efficiency of the Zr^89-protein of 90% or more and the purity of 80% or more were determined to be appropriate, and the labeled protein was administered subcutaneously at 0.2 mCi/0.2 cc. Each administration substance was administered to three animals and static images for 20 minutes were obtained using PET-MRI at 1 hour, 6 hours, 24 hours, 48 hours, and 168 hours after injection. Through image analysis, the distribution of drugs as a function of time in the liver, small intestine, and large intestine was expressed as SUV (Standardized Uptake Value) and comparatively analyzed.

B6 normal mice [3] = assay: MG12 vs. GLP-1 and GLP-2 combo: body weight and small intestine changes; assay type: in vivo; settings: 12 days SC
Procedure: In particular, in order to observe changes in body weight and the small intestine following the substance administration, an experiment was conducted in B6 normal mice. […] After starting drug administration twice a week during the test period, feed intake was measured and expressed as cumulative feed intake, and pre-autopsy body weight was measured to calculate the body weight vs. feed intake. After the autopsy, the weight of the small intestine, and mucosal depth and villus height of the duodenum and the jejunum were measured. More specifically, after the autopsy, the entire gastrointestinal tract of the mouse was separated, the mesentery and the pancreas were excised, and the area where the ileum and the cecum meet was cut to separate the small intestine and the large intestine.

[4] = tested on: C57BL/6J male mice on CD-HFD; assay: Choline-deficient high-fat diet (CD-HFD) metabolic syndrome model; assay type: in vivo
From the text: To this end, in particular, with respect to experimental animals induced with fatty liver and steatohepatitis through high-fat diet, as shown in FIG. 13a and Table 8, the present inventors performed a choline-deficient high-fat diet ([…]) for 12 weeks using 8-week-old C57BL/6J male mice, and then 20 nmol/kg of MG12-5, MG12-8, and each of 10 nmol/kg of GLP-1 and GLP-2 combination (combo) were administrated twice subcutaneously twice to experimental animals respectively, along with a CD-HFD diet for 4 weeks, and various serological and histological analyses were performed.
First, the present inventors recorded changes in body weight and food intake of experimental animals during the experiment period.
As described above, after 16 weeks on CD-HFD, mice treated with drugs (MG12-5, MG12-8, and GLP-1 and GLP-2 combo) twice a week for 4 weeks, after food restriction 12 hours, were intraperitoneally administered with glucose at a dose of 2 g/kg, and changes in blood glucose level were measured at a time interval for a total of 3 hours. […] FIG. 14b is a graph showing the area under the curve related to changes in blood glucose level.
The present inventors sacrificed and extracted liver tissues from a mouse having completed the drug administration experiment as described above, and captured photographs thereof to examine changes in the size and color of the liver tissues, and measured the weight of the extracted liver tissues as well as ALT blood level, which is a measure of hepatotoxicity level.

[5] = 20 nmol/kg SC, 4 weeks with CD-HFD
[6] = excised liver at end of experiment

B1: MG12-5: Knob/hole Fc heterodimer: GLP-1/Exendin 4 hybrid (SEQ 5), unmodified linker, first fusion protein SEQ 28; GLP-2 (SEQ 17), second fusion protein SEQ 34 (protein)
chain 1: HGEGTFTSDVSSYLEGQAAKEFIAWLVKGGPSSGAPPPSGGGGSGGGGSGGGGSEKEKEEQEERTHTCPPCPSHTQPLGVFLFPPKPKDQLMISRTPEVTCVVVDVSQEDPEVQFNWYVDGVEVHNAKTKPREEQFNSTYRVVSVLTVLHQDWLNGKEYKCKVSNKGLPSSIEKTISKAKGQPREPQVYTLPPCQEEMTKNQVSLWCLVKGFYPSDIAVEWESNGQPENNYKTTPPVLDSDGSFFLYSRLTVDKSRWQEGNVFSCSVLHEALHNHYTQKSLSLSLGK
chain 2: HGDGSFSDEMNTILDNLAARDFINWLIQTKITDGGGGSGGGGSGGGGSEKEKEEQEERTHTCPPCPSHTQPLGVFLFPPKPKDQLMISRTPEVTCVVVDVSQEDPEVQFNWYVDGVEVHNAKTKPREEQFNSTYRVVSVLTVLHQDWLNGKEYKCKVSNKGLPSSIEKTISKAKGQPREPQVCTLPPSQEEMTKNQVSLSCAVKGFYPSDIAVEWESNGQPENNYKTTPPVLDSDGSFFLVSRLTVDKSRWQEGNVFSCSVLHEALHNHYTQKSLSLSLGK
[1]; GLP-2-Fc ELISA
  terminal half-life, rank among MG12-1, 3, 4 and 5: shortest half-life
[1]; both ELISA methods
  Cmax, rank among MG12-1, 3, 4 and 5: highest value
[1]; rat, GLP-1-Fc ELISA (Table 5)
  AUClast: 26.0596 ± 3.0285 µg·h/mL
  Cmax: 1036.2 ± 59.5 ng/mL
  Half-life: 18.4 ± 6.2 h
  Tmax: 10 h
[1]; rat, GLP-2-Fc ELISA (Table 6)
  AUClast: 188.7416 ± 7.8705 µg·h/mL
  Cmax: 3201.3 ± 95.6 ng/mL
  Half-life: 30.6 ± 2.1 h
  Tmax: 24.0 ± 0.0 h
[1]; rat, SC
  AUClast, rank among MG12-1, 3, 4 and 5: highest
B6 normal mice [2]; 2 weeks dosing
  body weight: an increase significant compared to the negative control group; also recorded: statistically significant body weight increase compared to other drug administered groups
B6 normal mice [2]; Week 1, after the second dose
  energy absorption rate: statistically significant increase compared to the vehicle-administered group
B6 normal mice [2]; Week 2, after the fourth dose
  energy absorption rate: an increase even more significant than GLP-2-Fc homo
B6 normal mice [2]; day 14, 2 weeks dosing
  small intestine weight: most notable increase in the small intestine weight; also recorded: statistically significant increase compared to the other two drug administered group; also recorded: superior effect of increasing small intestine weight to GLP-2-2G and GLP-2-Fc homodimer
Balb/c-nude mice
  distribution to the liver (SUV): reduced or showed no difference compared to Fc
  distribution to the small intestine and large intestine (SUV): significantly high compared to that of GLP-1-Fc homodimer and GLP-2-Fc homodimer
B6 normal mice [3]; normalized to cumulative feed intake
  body weight increase vs. feed intake: statistically significant body weight increase compared to the co-administered group
B6 normal mice [3]; Ex-4 10 nmol/kg, others 33.3 nmol/kg
  small intestine weight: statistically significant increase in the small intestine compared to the co-administered group
[4]; [5]
  body weight (relative change): greater relative body weight reduction effect
  feed intake: lower feed intake
[4]; after 16 weeks of CD-HFD diet
  blood ALT level: decrease in ALT level to a level similar to that of the normal diet group
[4]; [6]
  liver color: liver color similar to that of the normal diet group
  liver weight: reduced
[4]; glucose 2 g/kg i.p. after 12 hours food restriction, 3 hours
  blood glucose level, intraperitoneal glucose tolerance test: statistically significant decrease in blood glucose level
[4]; intraperitoneal glucose tolerance test
  area under the curve of the change in blood glucose level: decreased two times or more
